Target: P. falciparum cytochrome c-2 (PF3D7_1311700), recombinant (P. falciparum) (UniProt Q8I6T6)
Experiment: crystal structure

P. falciparum cytochrome c-2 (PF3D7_1311700), recombinant (from UniProt Q8I6T6 1-159) (natural protein)
stoichiometry N: 2

— PMC9900762
